Numbering of substitutions follows the chain as printed. Where two headings read alike, the source gives them in different places.
Assays:
Experiment in all cases: EMSA
[1] = target: T1, HU alpha-beta heterodimer (Escherichia coli, UniProt P0ACF0;P0ACF4 1-90;1-90)
[2] = target: T1, HU alpha-beta heterodimer; remark: listed apart in the source
[3] = target: T1, HU alpha-beta heterodimer; remark: listed apart in the source
[4] = target: T1, HU alpha-beta heterodimer; remark: listed apart in the source
[5] = target: T1, HU alpha-beta heterodimer; remark: listed apart in the source
[6] = target: T1, HU alpha-beta heterodimer; remark: listed apart in the source
[7] = target: T1, HU alpha-beta heterodimer; remark: listed apart in the source
[8] = target: T1, HU alpha-beta heterodimer; remark: listed apart in the source
[9] = target: T1, HU alpha-beta heterodimer; remark: listed apart in the source
[10] = target: T1, HU alpha-beta heterodimer; remark: listed apart in the source

T1 sequence (P0ACF0 whole entry, chain 1 of 2): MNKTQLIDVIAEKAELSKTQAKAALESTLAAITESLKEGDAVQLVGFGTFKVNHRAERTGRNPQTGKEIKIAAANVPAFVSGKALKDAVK
T1 sequence (P0ACF4 whole entry, chain 2 of 2): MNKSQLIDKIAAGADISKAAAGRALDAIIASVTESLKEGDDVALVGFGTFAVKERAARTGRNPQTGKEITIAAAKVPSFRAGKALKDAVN

B1: ssDNA D-24 (ssDNA)
DNA: AGTCTAGAGTGCAGTTGAGTCCTT
B1: binds [1].

B2: ssDNA D-44 (ssDNA)
DNA: AGTCTAGAGTGCAGTTGAGTCCTTGCTACGACGGATCCCTTAGG
Binder B2 has a Kd [2] of 40 nM.

B3: ssDNA D-36 (ssDNA)
DNA: AGTCTAGAGTGCAGTTGAGTCCTTGCTACGACGGAT
In the case of B3, the Kd [3] is reported as 80 nM.

B4: ssDNA D-28 (ssDNA)
DNA: AGTCTAGAGTGCAGTTGAGTCCTTGCTA
Binder B4 has a Kd [4] of 755 nM.

B5: ssDNA D-32 (ssDNA)
DNA: AGTCTAGAGTGCAGTTGAGTCCTTGCTACGAC
Work on B5 yielded a Kd [5] of 114 nM.

B6: mismatch 4 (dsDNA)
DNA 1: AGTCTAGACTGCAGTTGAGTCCTTGCTAGGACGGATCCCT
DNA 2: AGGGATCCGTCCTAGCAAATGTTCAACTGCAGTCTAGACT
B6 showed a Kd [6] of 21 nM.

B7: ssDNA D-40 (ssDNA)
DNA: B6 DNA 1 with C9G, G29C
B7 gave a Kd [7] of 54 nM.

B8: mismatch 6 (dsDNA)
DNA 1: B6 DNA 1
DNA 2: B6 DNA 2 with A18G, T23A
Binder B8 has a Kd [8] of 6 nM.

B9: mismatch 10 (dsDNA)
DNA 1: B6 DNA 1
DNA 2: AGGGATCCGTCCTAGTTGATGTAGCACTGCAGTCTAGACT
B9 gave a Kd [8] of 6 nM.

B10: dsDNA 40 (dsDNA)
DNA 1: B6 DNA 1 with C9G, G29C
DNA 2: AGGGATCCGTCGTAGCAAGGACTCAACTGCACTCTAGACT
B10 gave a Kd [9] of 7 nM.

B11: nicked 40 (dsDNA)
DNA 1: B6 DNA 1 with C9G, G29C
DNA 2: AGGGATCCGTCGTAGCAAGG
DNA 3: ACTCAACTGCACTCTAGACT
Binder B11 has a Kd [10] of 3 nM.

B12: mismatch 8 (dsDNA)
DNA 1: B6 DNA 1
DNA 2: B9 DNA 2 with T16C, C25A
In the case of B12, the Kd [8] is reported as 6 nM.

B13: ssDNA D-48 (ssDNA)
DNA: AGTCTAGAGTGCAGTTGAGTCCTTGCTACGACGGATCCCTTAGGTCAG
For B13, the Kd [3] was 41 nM.

Source: paper PMC2241890
